Source: patent publication US5686574

Tested on: TR/CAR chimera (TR beta A/B and C domains fused to CAR D, E, F domains)
Experiment: cell_activity
Conditions: no ligand, charcoal-stripped serum; JEG3 cells

## AAAGGTAAGATCAGGGACGTGACCGCAG (double strand) [T3RE]
  activity (% of TR beta response): > 50
